Experimental findings from article PMC10681739, “High-throughput data and modeling reveal insights into the mechanisms of cooperative DNA-binding by transcription factor proteins” are described below.

Changes are numbered by the printed parent chain.

To fix the notation:
B1: Table S3 C row 73 (dsDNA)
DNA 1: CCCAGATCACATGACAGGAAGGCAAAGTCCTCAGGT
DNA 2: ACCTGAGGACTTTGCCTTCCTGTCATGTGATCTGGG
B2: Table S3 C row 60 (dsDNA)
DNA 1: GGGGCTACTCGCAACAGGAAGTTCGGCCCTTAAAAA
DNA 2: TTTTTAAGGGCCGAACTTCCTGTTGCGAGTAGCCCC
B3: Table S3 C row 149 (dsDNA)
DNA 1: CTCAAGGAGGTGGGACTTCCTGCTAGGTGGGCCGTG
DNA 2: CACGGCCCACCTAGCAGGAAGTCCCACCTCCTTGAG
B4: Table S3 C row 37 (dsDNA)
DNA 1: ACCCTCTGTTTTGAGCTTCCGGTAGAGGCTGGTAGG
DNA 2: CCTACCAGCCTCTACCGGAAGCTCAAAACAGAGGGT
B5: Table S3 C row 115 (dsDNA)
DNA 1: GCCACCAGAGGGCGCCGGAAGTCCTGACCCATTGTC
DNA 2: GACAATGGGTCAGGACTTCCGGCGCCCTCTGGTGGC
B6: Table S3 C row 186 (dsDNA)
DNA 1: GCTTTCTGGACTACACTTCCCAGAAGCCTCTAGGCC
DNA 2: GGCCTAGAGGCTTCTGGGAAGTGTAGTCCAGAAAGC
B7: Table S3 C row 88 (dsDNA)
DNA 1: TCTCACGTAGACGCGCGGAAACACTAACGAGTTGAA
DNA 2: TTCAACTCGTTAGTGTTTCCGCGCGTCTACGTGAGA
B8: Table S3 C row 141 (dsDNA)
DNA 1: CTCCAACCCTTGTCCCTTCCGCCTGCCACTGCAGGT
DNA 2: ACCTGCAGTGGCAGGCGGAAGGGACAAGGGTTGGAG
B9: Table S3 C row 68 (dsDNA)
DNA 1: CCCTATTCGCAGAGGAGGAAGTGGAGGCTCTCCAGG
DNA 2: CCTGGAGAGCCTCCACTTCCTCCTCTGCGAATAGGG
B10: Table S3 C row 142 (dsDNA)
DNA 1: GCCCCTGCCCCAGAGAGGAAGTTCGGCCTCATCGAG
DNA 2: CTCGATGAGGCCGAACTTCCTCTCTGGGGCAGGGGC
B11: Table S3 C row 136 (dsDNA)
DNA 1: GAACTCAGTACAGGCCGGAAGTCGGGGTACGGGGCC
DNA 2: GGCCCCGTACCCCGACTTCCGGCCTGTACTGAGTTC
B12: Table S3 C row 125 (dsDNA)
DNA 1: TTCCATTCGATGATGCTTCCGTATGAATCCATTCAC
DNA 2: GTGAATGGATTCATACGGAAGCATCATCGAATGGAA
B13: Table S3 C row 182 (dsDNA)
DNA 1: TCTGCAGAGGGTTCCCGGATACACCTTGCGAAGAAT
DNA 2: ATTCTTCGCAAGGTGTATCCGGGAACCCTCTGCAGA
B14: Table S3 C row 177 (dsDNA)
DNA 1: TCTCCTACTCCTGCGCGGATGCTCTAGGCCGCTTGC
DNA 2: GCAAGCGGCCTAGAGCATCCGCGCAGGAGTAGGAGA
B15: Table S3 C row 158 (dsDNA)
DNA 1: ACAAAAAAACCCTACCTTCCGCCATGTCTGGCCCGG
DNA 2: CCGGGCCAGACATGGCGGAAGGTAGGGTTTTTTTGT
B16: Table S3 C row 183 (dsDNA)
DNA 1: CGCCCCAATGTTCGGCGGAAGGGAGGGAGGGTCTCC
DNA 2: GGAGACCCTCCCTCCCTTCCGCCGAACATTGGGGCG
B17: Table S2 A row 644 (dsDNA)
DNA 1: GCCGGCGGCCGGAAGTCTATCCCGCAGAAGCGCAGC
DNA 2: GCTGCGCTTCTGCGGGATAGACTTCCGGCCGCCGGC
B18: Table S2 A row 393 (dsDNA)
DNA 1: CTGACGCATTTCCGGCCTTTGCGGTTGATCGGTCAT
DNA 2: ATGACCGATCAACCGCAAAGGCCGGAAATGCGTCAG
B19: Table S2 A row 280 (dsDNA)
DNA 1: CCTGCAGCAACAGGATGTGGTTTGAAAGGATGAAAG
DNA 2: CTTTCATCCTTTCAAACCACATCCTGTTGCTGCAGG
B20: Table S2 A row 1146 (dsDNA)
DNA 1: GACACAAGCCTCACAGGATGTGGTCAAAGAAGGTTG
DNA 2: CAACCTTCTTTGACCACATCCTGTGAGGCTTGTGTC
B21: Table S2 A row 1136 (dsDNA)
DNA 1: CCCGCTCACGCCGGAAGTGGTTTGCGTTTTCAAGAT
DNA 2: ATCTTGAAAACGCAAACCACTTCCGGCGTGAGCGGG
B22: Table S2 A row 1371 (dsDNA)
DNA 1: GAACCTGGGAGGCGGAAGTTGCGGTTAGCCGAGATC
DNA 2: GATCTCGGCTAACCGCAACTTCCGCCTCCCAGGTTC
B23: Table S2 A row 1206 (dsDNA)
DNA 1: TTGATTGGAGCAGGATGTGGTCAGAACAGTATGCAG
DNA 2: CTGCATACTGTTCTGACCACATCCTGCTCCAATCAA
B24: Table S2 A row 964 (dsDNA)
DNA 1: AATCTGAAACAGGAAATAAGTCTGTGGTTGTGTGTT
DNA 2: AACACACAACCACAGACTTATTTCCTGTTTCAGATT
B25: Table S2 A row 92 (dsDNA)
DNA 1: GTCCCCGTAACAGGATGTGGTGAGCTGTTATACCAC
DNA 2: GTGGTATAACAGCTCACCACATCCTGTTACGGGGAC
B26: Table S2 A row 1758 (dsDNA)
DNA 1: GCTGATAGAACAGGATGTGGTAAAGAAGCAGGCCAA
DNA 2: TTGGCCTGCTTCTTTACCACATCCTGTTCTATCAGC
B27: Table S2 A row 1295 (dsDNA)
DNA 1: GCTCTGGGTCACACAGGATGTGGTTTTTGAAGTTTG
DNA 2: CAAACTTCAAAAACCACATCCTGTGTGACCCAGAGC
B28: Table S2 A row 270 (dsDNA)
DNA 1: CTCATTGACAGGAAGTCTAACCACAGGCTTAGGCCC
DNA 2: GGGCCTAAGCCTGTGGTTAGACTTCCTGTCAATGAG
B29: Table S2 A row 466 (dsDNA)
DNA 1: GTGCTAGGACACAGGAAGCGATACCACAAAGAACAT
DNA 2: ATGTTCTTTGTGGTATCGCTTCCTGTGTCCTAGCAC
B30: Table S2 A row 166 (dsDNA)
DNA 1: GATATGGCAGGAAGTAGGGCCTGGAAACCGCACGGC
DNA 2: GCCGTGCGGTTTCCAGGCCCTACTTCCTGCCATATC
B31: Table S2 A row 1184 (dsDNA)
DNA 1: GAAGCTCCCCAAACAGGATGTGGTTAGGGAGAGGGG
DNA 2: CCCCTCTCCCTAACCACATCCTGTTTGGGGAGCTTC
B32: Table S2 A row 1759 (dsDNA)
DNA 1: CCTGTTGATAAAACAGGATGTGGTAAAGAAGCTGGC
DNA 2: GCCAGCTTCTTTACCACATCCTGTTTTATCAACAGG
B33: Table S2 A row 443 (dsDNA)
DNA 1: CCATGCACAACAGGATGTGGTTAGACAGTCAAAATT
DNA 2: AATTTTGACTGTCTAACCACATCCTGTTGTGCATGG
B34: Table S2 A row 1460 (dsDNA)
DNA 1: TAGCCACTAACCGGAAACGTTAAACCACAGCTCCGT
DNA 2: ACGGAGCTGTGGTTTAACGTTTCCGGTTAGTGGCTA
B35: Table S2 A row 706 (dsDNA)
DNA 1: B34 DNA 1 with T8G
DNA 2: B34 DNA 2 with A29C
B36: Table S2 A row 1217 (dsDNA)
DNA 1: TGGGGGATGGCAGCAGGATGTGGTTATCTCAGAAAG
DNA 2: CTTTCTGAGATAACCACATCCTGCTGCCATCCCCCA
B37: Table S2 A row 327 (dsDNA)
DNA 1: AATTGAGACAGGAAATGTTGGTTTGTGGTCAGGCAC
DNA 2: GTGCCTGACCACAAACCAACATTTCCTGTCTCAATT
B38: Table S2 A row 1401 (dsDNA)
DNA 1: GCATTTACGGGCAGGAAATGAAACCACAGAGTACAA
DNA 2: TTGTACTCTGTGGTTTCATTTCCTGCCCGTAAATGC
B39: Table S2 A row 167 (dsDNA)
DNA 1: GACAATGAGCGCACAGGATGTGGTTTGGCGGCAGGG
DNA 2: CCCTGCCGCCAAACCACATCCTGTGCGCTCATTGTC
B40: Table S2 A row 978 (dsDNA)
DNA 1: ACTGAACAAACCGGATGTGGTTGCCACCTGCAATCT
DNA 2: AGATTGCAGGTGGCAACCACATCCGGTTTGTTCAGT
B41: Table S2 A row 987 (dsDNA)
DNA 1: TGGGCAGGAAGTGGTATCTGATTGTGGTTTTGATTT
DNA 2: AAATCAAAACCACAATCAGATACCACTTCCTGCCCA

For one data set, the target named is RUNX1 (Homo sapiens, UniProt Q01196). Nature of the data set: gcPBM; 2 nM RUNX1. The conditions noted are these: tags: N-terminal GST (pDEST15), kept (PMC6008103); label: surface-attached array probe.
RUNX1, sequence (Q01196 whole entry): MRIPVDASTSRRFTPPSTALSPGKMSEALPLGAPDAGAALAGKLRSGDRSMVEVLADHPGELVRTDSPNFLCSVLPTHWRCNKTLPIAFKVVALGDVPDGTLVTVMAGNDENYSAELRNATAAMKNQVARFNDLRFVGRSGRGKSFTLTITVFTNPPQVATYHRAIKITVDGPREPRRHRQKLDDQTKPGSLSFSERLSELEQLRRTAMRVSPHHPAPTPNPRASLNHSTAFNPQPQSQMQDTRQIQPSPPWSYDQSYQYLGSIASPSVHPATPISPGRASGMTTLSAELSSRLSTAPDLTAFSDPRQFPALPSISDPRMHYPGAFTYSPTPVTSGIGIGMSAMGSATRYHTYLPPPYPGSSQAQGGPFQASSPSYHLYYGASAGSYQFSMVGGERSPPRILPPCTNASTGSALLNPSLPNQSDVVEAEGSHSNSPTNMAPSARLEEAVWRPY
As for B1, the binding signal was 850 PBM fluorescence, median of replicate spots. For the molecule B2, the binding signal is 839 PBM fluorescence, median of replicate spots. The same measure, in the same setting: next, B3: 829 PBM fluorescence, median of replicate spots; B4: 852 PBM fluorescence, median of replicate spots; B5: 838 PBM fluorescence, median of replicate spots.

Regarding B6, the binding signal was 826 PBM fluorescence, median of replicate spots. Turning to B7, the binding signal was 840 PBM fluorescence, median of replicate spots. Take B8: the binding signal was 850 PBM fluorescence, median of replicate spots. Still for that read-out and setting: next, B9: 829 PBM fluorescence, median of replicate spots; B10: 827 PBM fluorescence, median of replicate spots; B11: 841 PBM fluorescence, median of replicate spots. Still for that read-out and setting: with B12 the figure was 844 PBM fluorescence, median of replicate spots; with B13, 844 PBM fluorescence, median of replicate spots; with B14, 846 PBM fluorescence, median of replicate spots. For B15, the binding signal was 847 PBM fluorescence, median of replicate spots. For the molecule B16, the binding signal is 835 PBM fluorescence, median of replicate spots.

The target in the next data set is ETS1:RUNX1 (Homo sapiens, UniProt P14921;Q01196 full;full). Nature of the data set: gcPBM; 1 nM ETS1 + 25 nM RUNX1, anti-ETS1 signal, normalised. Conditions: tags: N-terminal GST (pDEST15), kept (PMC6008103); copies: 1;1; label: surface-attached array probe.
ETS1:RUNX1, sequence (P14921 whole entry, chain 1 of 2): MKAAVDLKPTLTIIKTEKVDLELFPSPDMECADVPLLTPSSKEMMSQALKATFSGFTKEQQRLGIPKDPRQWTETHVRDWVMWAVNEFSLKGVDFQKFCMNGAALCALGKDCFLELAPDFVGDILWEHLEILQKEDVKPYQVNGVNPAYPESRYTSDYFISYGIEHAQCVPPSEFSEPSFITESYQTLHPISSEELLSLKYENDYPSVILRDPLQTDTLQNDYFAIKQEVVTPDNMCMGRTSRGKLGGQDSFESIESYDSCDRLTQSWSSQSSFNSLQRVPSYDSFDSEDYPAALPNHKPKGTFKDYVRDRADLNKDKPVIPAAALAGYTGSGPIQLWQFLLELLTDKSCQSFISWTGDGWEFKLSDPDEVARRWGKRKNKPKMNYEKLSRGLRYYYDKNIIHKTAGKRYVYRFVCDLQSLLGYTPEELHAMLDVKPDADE
ETS1:RUNX1, sequence (Q01196 whole entry, chain 2 of 2): as the sequence (Q01196 whole entry) above
On to B17, for which the binding signal is 19100 PBM fluorescence, median of replicate spots. Turning to B18, the binding signal was 30800 PBM fluorescence, median of replicate spots. On the same count and under the same terms, next, B19: 32100 PBM fluorescence, median of replicate spots; B20: 20600 PBM fluorescence, median of replicate spots. Same read-out and setting: next, B21: 22300 PBM fluorescence, median of replicate spots.

As for B22, the binding signal is 64700 PBM fluorescence, median of replicate spots. Still for that read-out and setting: with B23 the figure was 23200 PBM fluorescence, median of replicate spots; with B24, 23600 PBM fluorescence, median of replicate spots; with B25, 19700 PBM fluorescence, median of replicate spots. In the case of B26, the binding signal is 24600 PBM fluorescence, median of replicate spots. Consider B27, for which the binding signal was 49000 PBM fluorescence, median of replicate spots. B28: the binding signal is 29200 PBM fluorescence, median of replicate spots. As for B29, the binding signal is 19800 PBM fluorescence, median of replicate spots.

For B30, the binding signal was 25500 PBM fluorescence, median of replicate spots. On to B31, for which the binding signal is 58300 PBM fluorescence, median of replicate spots.

Regarding B32, the binding signal was 43300 PBM fluorescence, median of replicate spots. For B33, the binding signal is 29600 PBM fluorescence, median of replicate spots. On to B34, for which the binding signal is 56100 PBM fluorescence, median of replicate spots. On the same count and under the same terms, with B35 the figure was 46400 PBM fluorescence, median of replicate spots.

With B36, the binding signal was 29000 PBM fluorescence, median of replicate spots. Still for that read-out and setting: with B37 the figure was 28000 PBM fluorescence, median of replicate spots; with B38, 36500 PBM fluorescence, median of replicate spots; with B39, 33400 PBM fluorescence, median of replicate spots. For the molecule B40, the binding signal was 38500 PBM fluorescence, median of replicate spots. Take B41: the binding signal was 25700 PBM fluorescence, median of replicate spots.
